Experimental data reported in article PMC11488486.

Assays:
[1] = biological target: UCHL1, wild type (from pGEX-6p-1) (human) (UniProt P09936)
[2] = biological target: UCHL1 R178Q (from pGEX-6p-1) (human) (UniProt P09936)

Ub-Rhodamine
KM of UCHL1-catalyzed hydrolysis of Ub-Rho (Michaelis-Menten kinetics) [1]: 0.03 µM
KM of UCHL1-catalyzed hydrolysis of Ub-Rho (Michaelis-Menten kinetics) [2]: 0.17 µM
